From patent US20260049134A1 (UNIVERSITY OF FLORIDA RESEARCH FOUNDATION, published 2026) come the findings set out here.

Common to all, as to assay: ELISA on coated protein
A general note: An ELISA detects its analyte on a solid surface through an enzyme-linked reagent.

Test [1] has as its target T1, SELL.
T1 construct: also called SELL-Fc-His (R&D Systems); L-Selectin
T1 chain: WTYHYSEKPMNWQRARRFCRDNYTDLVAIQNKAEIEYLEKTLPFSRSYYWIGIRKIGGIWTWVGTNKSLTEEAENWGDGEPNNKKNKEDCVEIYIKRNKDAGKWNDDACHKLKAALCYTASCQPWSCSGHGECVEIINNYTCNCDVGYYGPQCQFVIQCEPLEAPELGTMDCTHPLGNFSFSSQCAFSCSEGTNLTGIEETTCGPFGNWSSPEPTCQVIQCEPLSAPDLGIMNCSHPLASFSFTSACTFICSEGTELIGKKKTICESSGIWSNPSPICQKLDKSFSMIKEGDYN
The method, then:
(§1) Recombinant purified ECDs (50-150 ng) of each putative target protein were coated, incubated with 150 ng of the indicated primary antibody, and binding was detected using a peroxidase-conjugated anti-human Fab secondary antibody. Heatmap represents averages of technical triplicates. (8B) Target validation via siRNA knockdown. H929 cells were transfected with siRNA pools targeting the putative antibody targets ICAM1, CADM1, and PTPRG. Cells were then subjected to cognate IgG binding analysis via flow cytometry. (NT, non-targeting siRNA).
(§2) ELISA ELISA was conducted as described previously. Briefly, 50-150 ng of antigen was coated overnight in half-area 96-well plates at 4° C., blocked with 3% BSA at 37° C. for 1 h, and 150 ng of chimeric rabbit/human IgG1 was added, incubating for 2 h at 37° C. […] After incubating at 37° C. for 15 min-1 h (depending on intensity of controls), data were acquired using a SpectraMax M5 plate reader (Molecular Devices).

The target in test [2] is T2, IGSF11.
T2 construct: also called IGSF11-Fc (R&D Systems)
T2 chain: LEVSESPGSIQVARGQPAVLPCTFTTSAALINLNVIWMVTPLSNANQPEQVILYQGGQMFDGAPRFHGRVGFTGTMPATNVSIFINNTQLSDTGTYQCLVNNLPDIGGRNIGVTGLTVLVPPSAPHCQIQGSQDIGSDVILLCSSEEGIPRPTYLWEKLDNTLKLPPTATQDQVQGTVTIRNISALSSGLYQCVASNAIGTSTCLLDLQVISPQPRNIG
The method, then: as §1, §2

Test [3] has as its target T3, SLAMF7.
T3 construct: also called SLAMF7-StrepTag; not shown: StrepTag and any linker
T3 chain: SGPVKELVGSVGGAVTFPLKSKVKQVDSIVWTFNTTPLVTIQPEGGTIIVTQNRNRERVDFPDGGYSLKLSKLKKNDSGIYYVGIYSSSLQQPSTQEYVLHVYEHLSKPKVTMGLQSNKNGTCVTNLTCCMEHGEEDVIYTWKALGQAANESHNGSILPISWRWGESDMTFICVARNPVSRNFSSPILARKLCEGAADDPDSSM
The method, then: as §1, §2

Test [4] has as its target T4, ANXA1.
T4 construct: also called ANXA1-His (R&D Systems); not shown: His tag
T4 chain: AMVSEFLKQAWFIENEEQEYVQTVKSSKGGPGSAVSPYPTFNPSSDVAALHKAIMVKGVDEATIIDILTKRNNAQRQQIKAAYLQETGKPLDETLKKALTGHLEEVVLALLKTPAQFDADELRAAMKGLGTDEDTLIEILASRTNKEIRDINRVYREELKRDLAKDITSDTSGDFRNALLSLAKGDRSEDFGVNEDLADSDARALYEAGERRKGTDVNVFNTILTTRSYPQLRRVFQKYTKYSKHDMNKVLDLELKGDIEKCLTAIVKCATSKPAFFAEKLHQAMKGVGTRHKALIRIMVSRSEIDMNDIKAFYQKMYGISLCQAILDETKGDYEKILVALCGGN
The method, then: as §1, §2

Test [5] concerns the target T5, HHLA2.
T5 construct: also called HHLA2-Fc (R&D Systems); B7-H7; not shown: Fc part and any linker
T5 chain: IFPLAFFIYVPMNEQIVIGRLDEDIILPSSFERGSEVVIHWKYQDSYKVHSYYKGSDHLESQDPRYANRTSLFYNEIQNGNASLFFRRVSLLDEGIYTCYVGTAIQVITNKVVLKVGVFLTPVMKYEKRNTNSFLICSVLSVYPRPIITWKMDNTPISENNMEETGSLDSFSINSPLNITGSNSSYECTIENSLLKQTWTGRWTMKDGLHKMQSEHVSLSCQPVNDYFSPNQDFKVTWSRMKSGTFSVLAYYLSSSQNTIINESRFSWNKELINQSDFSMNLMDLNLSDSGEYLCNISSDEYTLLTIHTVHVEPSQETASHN
The method, then:
as §1, §2

In test [6] the target is T6, GARS-His (Sino Biological) (human, UniProt P41250 37-739, limits assumed).
T6 construct: Bought; also called GARS1; glycyl-tRNA synthetase; not shown: His tag of the bought protein
T6 sequence: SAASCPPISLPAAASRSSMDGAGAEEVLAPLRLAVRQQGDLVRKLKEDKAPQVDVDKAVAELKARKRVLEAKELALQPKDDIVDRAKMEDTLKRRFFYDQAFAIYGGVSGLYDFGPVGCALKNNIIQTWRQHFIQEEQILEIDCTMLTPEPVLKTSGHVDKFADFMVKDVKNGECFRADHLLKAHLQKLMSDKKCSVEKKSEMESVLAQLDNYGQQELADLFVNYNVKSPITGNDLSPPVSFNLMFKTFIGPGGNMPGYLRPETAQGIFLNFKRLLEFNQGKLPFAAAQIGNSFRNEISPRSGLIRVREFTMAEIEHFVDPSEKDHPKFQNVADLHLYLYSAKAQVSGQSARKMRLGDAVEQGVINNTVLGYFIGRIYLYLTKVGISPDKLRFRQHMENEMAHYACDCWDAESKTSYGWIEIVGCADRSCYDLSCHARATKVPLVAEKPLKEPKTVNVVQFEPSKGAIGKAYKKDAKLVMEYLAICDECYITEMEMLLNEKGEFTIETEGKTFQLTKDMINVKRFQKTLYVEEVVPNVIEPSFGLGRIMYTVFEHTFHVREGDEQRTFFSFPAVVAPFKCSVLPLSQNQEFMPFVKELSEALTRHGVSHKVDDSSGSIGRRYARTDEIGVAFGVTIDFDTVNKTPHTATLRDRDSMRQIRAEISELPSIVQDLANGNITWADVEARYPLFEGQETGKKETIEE
The method, then:
as §1, §2

B1: HW-42 chimeric rabbit-human IgG1 LA/LA/PG (antibody, V domains shown)
VH: QSVKESEGGLFKPADTLTLTCTVSGFSLSSNEISWVRQAPGEGLEYIGIIDTGGRAYYAVWARSRSTITRNTNLNTVTLKMTSLTAADTATYFCARGGVDTEWYAFSSWGPGTLVTVPS
VL: SFVLTQPASVQVNLGQTVSLTCTADTLSRRYASWYQQKPGQAPVLLIFRDTSRPSGVPDRFSGSSSGDTATLTISGAQAGDEADYYCATSDGSGSNYQYVFGGGTQLTVTG
notes: Fc-silenced (L234A/L235A/P329G) IgG1, lambda; Alexa Fluor 647-labeled in single-step flow cytometry; Cluster C-1
B1: the binding result in test [1], in test [2], in test [3], in test [4] and in test [5] was “no binding (tested: 150 ng IgG1 per well)” in each case.

B2: HW-17 chimeric rabbit-human IgG1 LA/LA/PG (antibody, V domains shown)
VH: QSLGESRGRLVTPDETLTLTCTVSGIDLSSNAMSWVRQAPGEGLEWIGTINTGGRAYYASWAKGRFTISRTSTTVDLKMTSLTTEDTATYFCARERYSDGRAYDIWGPGTLVTISS
VL: SFVLTQPASVQVNLGQTVSLTCTADTLSRRYASWYQQKPGQAPVLLIYTDSNRPSGIPDRFSGSSSGNTATLTISGAQAGDEADYYCATDDGSGSIYQYVFGGGTQLTVTG
notes: as for B1
As for B2, the binding result in test [1], in test [2], in test [3], in test [4], in test [5] and in test [6] was “no binding (tested: 150 ng IgG1 per well)” in each case.

B3: HW-25 chimeric rabbit-human IgG1 LA/LA/PG (antibody, V domains shown)
VH: QSLEESGGRLVTPGTPLTLTCTVSGFSLSSYAMGWVRQAPGKGLEWIGIIDSRGSTYYATWAKGRFTISKTSTTVDLKITSPTTEDTATYFCAREDSYYYDSFNLWGPGTLVTVSS
VL: SFVLTQPASVQVNLGQTVSLTCTADTLSRRYASWYQQKPGQAPVLLIYRDTSRPSGVPDRFSGSSSGNTATLTISGAQAGDEADYYCATSDGSGSSYQCVFGGGTQLTVTG
notes: as for B1
Turning to B3, the binding result in test [1], in test [2], in test [3], in test [4] and in test [5] was “no binding (tested: 150 ng IgG1 per well)” each time.

B4: HW-70 chimeric rabbit-human IgG1 LA/LA/PG (antibody, V domains shown)
VH: QSLEESGGRLVTPGTPLTLTCTVSGFSLSSNAMSWVRQAPGKGLEWIGTIDGYGYTYYASWAKGRFTVSKTSTTVDLKITSPTTEDTATYFCAREIYLGSNFWGPGTLVTISS
VL: SFVLTQPASVQVNLGQTVSLTCTADTLSRRYASWYQQKPGQAPVLLIYRDTSRPSGVPDRFSGSSSGNTATLTISGAQAGDEADYYCATADGSGSSYQFVFGGGTQLTVTG
notes: as for B1
Take B4: the binding result in test [1], in test [2], in test [3], in test [4] and in test [5] was “no binding (tested: 150 ng IgG1 per well)” in each case.

B5: HW-1 chimeric rabbit-human IgG1 LA/LA/PG (antibody, V domains shown)
VH: QSLEESGGGLFKPTDTLTLTCTASGFSLGSSYAISWVRQAPGKELEWIGTIDSGRAYYARWAKSRSTITRNTNENTVTLKMTSLTAADTATYFCARDLIPTYSQDIWGPGTLVTISS
VL: SFVLTQPASVQVNLGQTVSLTCTADTLSRRYASWYQQKPGQAPVLLIYRDTSRPSGVPDRFSGSSSGNTATLTISGAQAGDEADYYCATSDGSGNSYQYVFGGGTQLTVTS
notes: Fc-silenced (L234A/L235A/P329G) IgG1, lambda; Alexa Fluor 647-labeled in single-step flow cytometry; Prototype of cluster C-1
For B5, the binding result in test [1], in test [2], in test [3], in test [4], in test [5] and in test [6] was “no binding (tested: 150 ng IgG1 per well)” in each case.

B6: HW-8 chimeric rabbit-human IgG1 LA/LA/PG (antibody, V domains shown)
VH: QSLEESGGRLVTPGTPLTLTCTVSGFSLSSYAMSWVRQAPGKGLEWIGAISTGGSTTYASWAKGRFTISKTSSTTVDLKMTSLTTEDTATYFCVRHFRLWGPGTLVTISS
VL: QVLTQTPSSVSAAVGGTVTIKCQASQSIGSALAWFQQKPGQRPKLLIYRASNLASGVPSRFKGSGSGTEFALTISGVQREDAATYYCLGGAAAVWAFGAGTNVEIKR
notes: Fc-silenced (L234A/L235A/P329G) IgG1, kappa; Alexa Fluor 647-labeled in single-step flow cytometry; Cluster C-45
For the molecule B6, the binding result in test [1], in test [2], in test [3], in test [4] and in test [5] was “no binding (tested: 150 ng IgG1 per well)” each time.
